From patent US20140243256A1 (ADMINISTRATORS OF THE TULANE EDUCATIONAL FUND, published 2014) come the findings set out here.

This assay deals with T1, Pichinde virus (PICV) glycoprotein spikes on purified virus (Pichinde virus (CoAn 3739), UniProt P03540 59-273; P03540 2-58).
T1 construct: also called monomeric or oligomeric glycoproteins; GPC
T1 sequence 1: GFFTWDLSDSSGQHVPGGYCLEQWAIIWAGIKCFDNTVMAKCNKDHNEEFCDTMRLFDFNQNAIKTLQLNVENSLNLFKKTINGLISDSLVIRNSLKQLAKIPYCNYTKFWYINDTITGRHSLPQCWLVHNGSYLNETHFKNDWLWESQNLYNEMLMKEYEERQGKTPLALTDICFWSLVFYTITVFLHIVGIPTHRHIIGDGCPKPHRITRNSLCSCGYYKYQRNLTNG
T1 sequence 2: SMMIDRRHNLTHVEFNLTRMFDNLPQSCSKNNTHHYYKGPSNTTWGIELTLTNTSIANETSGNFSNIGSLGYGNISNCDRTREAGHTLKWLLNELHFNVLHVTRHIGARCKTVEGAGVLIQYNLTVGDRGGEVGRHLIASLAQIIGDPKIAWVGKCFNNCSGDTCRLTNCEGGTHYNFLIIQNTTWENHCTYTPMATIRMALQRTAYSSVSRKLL
T1 sequence 3: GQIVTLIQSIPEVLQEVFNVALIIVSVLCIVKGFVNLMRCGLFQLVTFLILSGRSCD
The assay is described as follows: glutaraldehyde crosslinking of PICV with peptide.

With LNLFKKTINGLISDSLVIR (TAMRA conjugated (position of the dye not stated), also called TAMRA-peptide) [TAMRA-conjugated Peptide 1], the binding result is on record as “no binding”.
